# Test results taken from article PMC9722718, “Structural basis of sequence-specific RNA recognition by the antiviral factor APOBEC3G”.
# B1: RNA3-GG (ssRNA)
# RNA: UUUUGGUUUU
# B2: RNA3-GAxtal (ssRNA)
# RNA: UUUUGAUUUU
# B3: RNA3-AA (ssRNA)
# RNA: UUUUAAUUUU
# B4: RNA3-GA (ssRNA)
# RNA: UUUUGAUUUU
# B5: RNA3-AAxtal (ssRNA)
# RNA: UUUUAAUUUU
# B6: RNA3-AG (ssRNA)
# RNA: UUUUAGUUUU
# Key:
# GST-NCp7 = GST-NCp7 (HIV-1, UniProt P04591 378-432); assay: EMSA; best binder; EMSA: 10 nM 6-FAM RNA, 50 mM HEPES pH 7.5, 250 mM NaCl, 1 mM DTT, 0.4 U/ul RNase inhibitor, 10% glycerol, on ice 10 min, 8% native PAGE at 4 C; conditions: protein: recombinant; tags: N-terminal GST; label: 6-FAM; single strand
# rA3GR8/E259A [1] = biological target: T1, rA3GR8/E259A (Macaca mulatta (rhesus macaque), UniProt M1GSK9 1-138+=AEAG+147-383, E259A;internal_change); assay: X-ray crystallography; 1.83 A; 1:1; EMSA: 10 nM 6-FAM RNA, 50 mM HEPES pH 7.5, 250 mM NaCl, 1 mM DTT, 0.4 U/ul RNase inhibitor, 10% glycerol, on ice 10 min, 8% native PAGE at 4 C; conditions: protein: recombinant; tags: 6xHis-SUMO removed by PreScission protease; single strand
# rA3GR8 = rA3GR8 (Macaca mulatta (rhesus macaque), UniProt M1GSK9 1-138+=AEAG+147-383, internal_change); assay: EMSA; EMSA: 10 nM 6-FAM RNA, 50 mM HEPES pH 7.5, 250 mM NaCl, 1 mM DTT, 0.4 U/ul RNase inhibitor, 10% glycerol, on ice 10 min, 8% native PAGE at 4 C; conditions: protein: recombinant; tags: 6xHis-SUMO removed by PreScission protease; label: 6-FAM; single strand
# rA3GR8/E259A [2] = biological target: T1, rA3GR8/E259A; assay: X-ray crystallography; 1:1; EMSA: 10 nM 6-FAM RNA, 50 mM HEPES pH 7.5, 250 mM NaCl, 1 mM DTT, 0.4 U/ul RNase inhibitor, 10% glycerol, on ice 10 min, 8% native PAGE at 4 C; conditions: protein: recombinant; tags: 6xHis-SUMO removed by PreScission protease; single strand
# rA3GR8, sequence (M1GSK9 entry or part of it): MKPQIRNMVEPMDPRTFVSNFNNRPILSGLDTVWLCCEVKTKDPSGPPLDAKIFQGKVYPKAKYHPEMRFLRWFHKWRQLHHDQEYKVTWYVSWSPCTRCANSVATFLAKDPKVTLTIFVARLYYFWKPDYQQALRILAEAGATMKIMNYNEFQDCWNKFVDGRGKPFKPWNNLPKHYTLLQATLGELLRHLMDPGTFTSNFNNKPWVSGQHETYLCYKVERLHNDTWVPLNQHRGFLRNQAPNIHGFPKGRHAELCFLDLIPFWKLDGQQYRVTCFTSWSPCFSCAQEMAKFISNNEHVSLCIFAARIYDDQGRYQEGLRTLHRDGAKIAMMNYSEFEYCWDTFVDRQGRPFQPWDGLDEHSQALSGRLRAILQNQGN
# T1 sequence (M1GSK9 entry or part of it E259A/| E259A E259A): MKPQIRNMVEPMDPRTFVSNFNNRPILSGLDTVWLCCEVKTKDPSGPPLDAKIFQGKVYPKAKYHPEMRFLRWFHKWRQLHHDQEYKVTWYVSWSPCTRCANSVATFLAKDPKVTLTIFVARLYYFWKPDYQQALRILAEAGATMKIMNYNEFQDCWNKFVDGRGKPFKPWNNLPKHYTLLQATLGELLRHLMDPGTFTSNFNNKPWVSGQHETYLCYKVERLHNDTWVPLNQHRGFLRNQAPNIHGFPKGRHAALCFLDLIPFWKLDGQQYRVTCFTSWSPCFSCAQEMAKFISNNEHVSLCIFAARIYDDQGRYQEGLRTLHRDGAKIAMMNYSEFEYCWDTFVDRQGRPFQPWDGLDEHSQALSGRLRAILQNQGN
binder,measurement,setting,value
B1,binding result,GST-NCp7,binds
B2,binding result,rA3GR8/E259A [1],binds
B3,Kd,rA3GR8,10 nM
B4,Kd,rA3GR8,47 nM
B5,binding result,rA3GR8/E259A [2],binds
B6,Kd,rA3GR8,200 nM
